Measurements reported in patent US20050233406A1, “Methods for high resolution identification of solvent accessible amide hydrogens in polypeptides and for characterization of polypeptide structure” (priority 2002, published 2005).

Target: T1, RIIα isoform of PKA (regulatory subunit) (Mus musculus, UniProt P12367)
T1 construct: made in house; host or cells: E. coli BL21 (DE3)
Assay: Surface plasmon resonance binding of D-AKAP2 to immobilized RIIα (BIAcore 3000)
Design: species or system murine
Settings: 1:1 binding model, average of three replicates, read-out: Kd (dissociation constant)
Method: FIG. 2 depicts the binding of D-AKAP2 to the regulatory subunit (RIIα) of PKA as determined using surface plasmon resonance. A total of 450 response units of RIIα were immobilized to a cAMP sensor chip. Serial dilutions (250-2 nM) of D-AKAP2 were injected over the surface. Both the one rate (kon) and the off rate (koff) were fit globally using the concentration series. A 1:1 binding model fits the data well and is illustrated as a bold line.
Binding of RIIa to D-AKAP2 was performed using a BIAcore 3000 (BIAcore). The regulatory subunit of PKA was immobilized to a CM5 chip (BIAcore) as described (Herberg et al., J. Mol. Biol., 298:329-339, 2000). […]
To evaluate the functional properties of this protein, binding of D-AKAP2 to the RIIα isoform of PKA was examined using surface plasmon resonance (Herberg et al., J. Mol. Biol. 298:329-339, 2000). […] D-AKAP2 was injected over the surface at varying concentrations and the affinity determined by fitting the curves to a 1:1 binding model (see FIG. 2).

T1 sequence (P12367 whole entry, canonical isoform): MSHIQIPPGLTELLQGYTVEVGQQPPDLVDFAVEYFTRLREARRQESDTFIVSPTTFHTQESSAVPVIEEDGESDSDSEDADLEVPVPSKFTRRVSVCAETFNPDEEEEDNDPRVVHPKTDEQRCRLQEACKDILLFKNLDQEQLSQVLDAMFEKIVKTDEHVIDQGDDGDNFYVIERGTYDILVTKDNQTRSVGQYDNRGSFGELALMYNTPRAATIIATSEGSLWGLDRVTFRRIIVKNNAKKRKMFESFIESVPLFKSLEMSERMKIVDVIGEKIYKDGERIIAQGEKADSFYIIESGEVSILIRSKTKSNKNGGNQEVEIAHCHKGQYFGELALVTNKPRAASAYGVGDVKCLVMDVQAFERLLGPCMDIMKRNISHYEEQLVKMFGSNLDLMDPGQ

AKB domain alone: PKA kinase binding (AKB) domain of D-AKAP2 (residues 336-360), tested alone without the rest of the protein (DPNCFVLAQAVVFSAMEQEHFSEFL; UniProt O88845 336-360, looked up, fragment)
Kd: 2 nM
